The source of these data is patent US11339383B2, “G proteins” (HEPTARES THERAPEUTICS LIMITED, priority 2016, dated 2022).

To fix the notation:
B1: Mini Gs199: mini Gs, Gly8 linker, switch III deleted, G49D E50N A249D S252D L272D (protein)
chain: MGHHHHHHANKKIEKQLQKDKQVYRATHRLLLLGADNSGKSTIVKQMRILHGGGGGGGGTSGIFETKFQVDKVNFHMFDVGGQRDERRKWIQCFNDVTAIIFVVDSSDYNRLQEALNDFKSIWNNRWLRTISVILFLNKQDLLAEKVLAGKSKIEDYFPEFARYTTPEDATPEPGEDPRVTRAKYFIRDEFLRISTASGDGRHYCYPHFTCAVDTENIRRVFNDCRDIIQRMHLRQYELL
modifications: MINI GS199
notes: mini Gs, Gly8 linker, switch III deleted, G49D E50N A249D S252D L272D
B2: Mini Gs340: mini Gs199 with I372A (protein)
chain: MGHHHHHHANKKIEKQLQKDKQVYRATHRLLLLGADNSGKSTIVKQMRILHGGGGGGGGTSGIFETKFQVDKVNFHMFDVGGQRDERRKWIQCFNDVTAIIFVVDSSDYNRLQEALNDFKSIWNNRWLRTISVILFLNKQDLLAEKVLAGKSKIEDYFPEFARYTTPEDATPEPGEDPRVTRAKYFIRDEFLRISTASGDGRHYCYPHFTCAVDTENARRVFNDCRDIIQRMHLRQYELL
modifications: MINI GS340
notes: mini Gs199 with I372A
B3: Mini Gs345: mini Gs199 with I372A-V375I; detergent stabilised construct (protein)
chain: MGHHHHHHANKKIEKQLQKDKQVYRATHRLLLLGADNSGKSTIVKQMRILHGGGGGGGGTSGIFETKFQVDKVNFHMFDVGGQRDERRKWIQCFNDVTAIIFVVDSSDYNRLQEALNDFKSIWNNRWLRTISVILFLNKQDLLAEKVLAGKSKIEDYFPEFARYTTPEDATPEPGEDPRVTRAKYFIRDEFLRISTASGDGRHYCYPHFTCAVDTENARRIFNDCRDIIQRMHLRQYELL
modifications: MINI GS345
notes: mini Gs199 with I372A-V375I; detergent stabilised construct
B4: Mini Gs350: mini Gs199 with L63Y (protein)
chain: MGHHHHHHANKKIEKQLQKDKQVYRATHRLLLLGADNSGKSTIVKQMRIYHGGGGGGGGTSGIFETKFQVDKVNFHMFDVGGQRDERRKWIQCFNDVTAIIFVVDSSDYNRLQEALNDFKSIWNNRWLRTISVILFLNKQDLLAEKVLAGKSKIEDYFPEFARYTTPEDATPEPGEDPRVTRAKYFIRDEFLRISTASGDGRHYCYPHFTCAVDTENIRRVFNDCRDIIQRMHLRQYELL
modifications: MINI GS350
notes: mini Gs199 with L63Y
B5: Mini Gs352: mini Gs199 with L63Y-I372A (protein)
chain: MGHHHHHHANKKIEKQLQKDKQVYRATHRLLLLGADNSGKSTIVKQMRIYHGGGGGGGGTSGIFETKFQVDKVNFHMFDVGGQRDERRKWIQCFNDVTAIIFVVDSSDYNRLQEALNDFKSIWNNRWLRTISVILFLNKQDLLAEKVLAGKSKIEDYFPEFARYTTPEDATPEPGEDPRVTRAKYFIRDEFLRISTASGDGRHYCYPHFTCAVDTENARRVFNDCRDIIQRMHLRQYELL
modifications: MINI GS352
notes: mini Gs199 with L63Y-I372A
B6: Mini GS303: mini Gs199 with V375I (protein)
chain: MGHHHHHHANKKIEKQLQKDKQVYRATHRLLLLGADNSGKSTIVKQMRILHGGGGGGGGTSGIFETKFQVDKVNFHMFDVGGQRDERRKWIQCFNDVTAIIFVVDSSDYNRLQEALNDFKSIWNNRWLRTISVILFLNKQDLLAEKVLAGKSKIEDYFPEFARYTTPEDATPEPGEDPRVTRAKYFIRDEFLRISTASGDGRHYCYPHFTCAVDTENIRRIFNDCRDIIQRMHLRQYELL
modifications: MINI GS303
notes: mini Gs199 with V375I
B7: Mini Gs254: mini Gs199 with M60A (protein)
chain: MGHHHHHHANKKIEKQLQKDKQVYRATHRLLLLGADNSGKSTIVKQARILHGGGGGGGGTSGIFETKFQVDKVNFHMFDVGGQRDERRKWIQCFNDVTAIIFVVDSSDYNRLQEALNDFKSIWNNRWLRTISVILFLNKQDLLAEKVLAGKSKIEDYFPEFARYTTPEDATPEPGEDPRVTRAKYFIRDEFLRISTASGDGRHYCYPHFTCAVDTENIRRVFNDCRDIIQRMHLRQYELL
modifications: MINI GS254
notes: mini Gs199 with M60A
B8: Mini Gs164: A249D and switch III deletion (protein)
chain: MGHHHHHHANKKIEKQLQKDKQVYRATHRLLLLGAGESGKSTIVKQMRILHGGGGGETKFQVDKVNFHMFDVGGQRDERRKWIQCFNDVTAIIFVVDSSSYNRLQEALNLFKSIWNNRWLRTISVILFLNKQDLLAEKVLAGKSKIEDYFPEFARYTTPEDATPEPGEDPRVTRAKYFIRDEFLRISTASGDGRHYCYPHFTCAVDTENIRRVFNDCRDIIQRMHLRQYELL
modifications: MINI GS164
notes: A249D and switch III deletion
B9: Mini Gs169: A249D-S252D-SIII- (mutation list truncated in table) (protein)
chain: MGHHHHHHANKKIEKQLQKDKQVYRATHRLLLLGAGESGKSTIVKQMRILHGGGGGETKFQVDKVNFHMFDVGGQRDERRKWIQCFNDVTAIIFVVDSSDYNRLQEALNDFKSIWNNRWLRTISVILFLNKQDLLAEKVLAGKSKIEDYFPEFARYTTPEDATPEPGEDPRVTRAKYFIRDEFLRISTASGDGRHYCYPHFTCAVDTENIRRVFNDCRDIIQRMHLRQYELL
modifications: MINI GS169
B10: Mini Gs183: G49D-E50N-A249D-S252D-SIII-L272D (protein)
chain: MGHHHHHHANKKIEKQLQKDKQVYRATHRLLLLGADNSGKSTIVKQMRILHGGGGGETKFQVDKVNFHMFDVGGQRDERRKWIQCFNDVTAIIFVVDSSDYNRLQEALNDFKSIWNNRWLRTISVILFLNKQDLLAEKVLAGKSKIEDYFPEFARYTTPEDATPEPGEDPRVTRAKYFIRDEFLRISTASGDGRHYCYPHFTCAVDTENIRRVFNDCRDIIQRMHLRQYELL
modifications: MINI GS183
notes: G49D-E50N-A249D-S252D-SIII-L272D
B11: Mini Gs165: A249D-S252D-SIII (protein)
chain: MGHHHHHHANKKIEKQLQKDKQVYRATHRLLLLGAGESGKSTIVKQMRILHGGGGGETKFQVDKVNFHMFDVGGQRDERRKWIQCFNDVTAIIFVVDSSDYNRLQEALNLFKSIWNNRWLRTISVILFLNKQDLLAEKVLAGKSKIEDYFPEFARYTTPEDATPEPGEDPRVTRAKYFIRDEFLRISTASGDGRHYCYPHFTCAVDTENIRRVFNDCRDIIQRMHLRQYELL
modifications: MINI GS165
notes: A249D-S252D-SIII
B12: Gαs: purified non-lipidated Gαs subunit (protein, UniProt P63092 2-394, looked up)
Guanine nucleotide-binding …: GCLGNSKTEDQRNEEKAQREANKKIEKQLQKDKQVYRATHRLLLLGAGESGKSTIVKQMRILHVNGFNGEGGEEDPQAARSNSDGEKATKVQDIKNNLKEAIETIVAAMSNLVPPVELANPENQFRVDYILSVMNVPDFDFPPEFYEHAKALWEDEGVRACYERSNEYQLIDCAQYFLDKIDVIKQADYVPSDQDLLRCRVLTSGIFETKFQVDKVNFHMFDVGGQRDERRKWIQCFNDVTAIIFVVASSSYNMVIREDNQTNRLQEALNLFKSIWNNRWLRTISVILFLNKQDLLAEKVLAGKSKIEDYFPEFARYTTPEDATPEPGEDPRVTRAKYFIRDEFLRISTASGDGRHYCYPHFTCAVDTENIRRVFNDCRDIIQRMHLRQYELL
modifications: non-lipidated
notes: purified non-lipidated Gαs subunit
B13: Mini Gs162: mini Gs161 with A249D (protein)
chain: MGHHHHHHANKKIEKQLQKDKQVYRATHRLLLLGAGESGKSTIVKQMRILHGGGGGETKFQVDKVNFHMFDVGGQRDERRKWIQCFNDVTAIIFVVDSSSYNMVIREDNQTNRLQEALNLFKSIWNNRWLRTISVILFLNKQDLLAEKVLAGKSKIEDYFPEFARYTTPEDATPEPGEDPRVTRAKYFIRDEFLRISTASGDGRHYCYPHFTCAVDTENIRRVFNDCRDIIQRMHLRQYELL
modifications: MINI GS162
notes: mini Gs161 with A249D
B14: Mini-Gi146: mini-Gi1 construct 46: N-terminus re-inserted, D249 back to Leu, G217D; SEQ ID NO:110 (protein)
chain: MGHHHHHHENLYFQGTLSAEDKAAVERSKMIDRNLREDGEKAAREVKLLLLGADNSGKSTIVKQMKIIHGGGGGGGGTTGIVETHFTFKDLHFKMFDVGGQRSERKKWIHCFEDVAAIIFCVDLSDYNRMHESMKLFDSICNNKWFTDTSIILFLNKKDLFEEKIKKSPLTICYQEYAGSNTYEEAAAYIQCQFEDLNKRKDTKEIYTHFTCATDTKNAQFIFDAVTDVIIKNNLKDCGLF
modifications: Mini-Gi146

The nature of the first series: Thermostability of GDP-bound mini G proteins by differential scanning fluorimetry (DSF). Format: physicochemical. The conditions noted are these: 1 mM GDP, SYPRO-orange, no receptor. On the procedure:
SYPRO-orange (15 μl) was added from a 20× stock solution to give a final concentration of 2×. Samples were mixed and 2×50 μl aliquots (duplicates) were transferred to 0.2 ml PCR tubes (Qiagen). Thermostability measurements were performed using a Rotor-Gene Q (Qiagen). Samples were equilibrated for 90 s at 25° C. before ramping from 25 to 99° C. at 4 s/° C. The melting temperature (Tm), corresponding to the inflection point of the curve, was derived from analysis using the Rotor-Gene Q software. Tm values were calculated as the mean±SEM from three independent experiments.
For constructs see FIGS. 29 and 35-37. Expression, purification and stability measurements by differential scanning fluorimetry (DSF) of the mini-G proteins as well as the non-lipidated Gβ1γ2 dimer, were performed following the protocols described in Example 1. The stability of mini-G proteins was also determined in detergent using native DSF (NanoTemper Prometheus). Mini-G proteins (2 mg/ml) in 50 mM HEPES pH 7.5 (KOH), 20 mM MgCl2, 50 mM NaCl, 1 μM GDP were mixed with either no detergent (control), 0.1% LMNG or 0.1% DDM. Samples were incubated on ice (minimum 30 min) prior to heating on the Prometheus (20% excitation, 15° C.-85° C., rate of 2.0° C./min) and the onset of scattering determined.
For orientation: In DSF a fluorescence change marks the thermal transition of the protein.
Regarding B1, the “Mini Gs basal Tm (GDP-bound state, DSF)” value is 72.5 ± 0.0 (n = 3) ° C. Still for that read-out and setting: as for B2, the figure is 66.6 ± 0.1 (n = 3) ° C; as for B3, 65.4 ± 0.1 (n = 3) ° C. Same read-out and setting: as for B4, the figure is 70.7 ± 0.0 (n = 3) ° C; as for B5, 64.7 ± 0.1 (n = 3) ° C; as for B6, 70.3 ± 0.0 (n = 3) ° C. Same read-out and setting: as for B7, the figure is 70.3 ± 0.0 (n = 3) ° C; as for B8, 66.5 ± 0.0 (n = 3) ° C; as for B9, 67.1 ± 0.0 (n = 3) ° C. As to B10, the “Mini Gs basal Tm (GDP-bound state, DSF)” value is on record as 72.5 ± 0.0 (n = 3) ° C. For B11, the “Mini Gs basal Tm (GDP-bound state, DSF)” value is 68.7 ± 0.0 (n = 3) ° C. B12: the “Mini Gs basal Tm (GDP-bound state, DSF)” value is given as 50.1 ± 0.1 (n = 3) ° C.

For the molecule B13, the “Mini Gs basal Tm (GDP-bound state, DSF)” value is 60.6 ± 0.1 (n = 3) ° C.

Staying with this series, now noted: DSF.
For B14, the “less stable than mini-Gs by” value was 17 °C.

Still in this series, the particulars now being: mini-G protein alone, GDP-bound.
For B14, the “Stability measured by DSF” value was found to be 48 °C.

The series is the same for the next values; noted with them: mini-G protein alone, GDP-bound; listed as Gs/i1 46.
On to B14, for which the “Stability measured by DSF” value came to 47.8 ± 0.3 °C.
